According to paper PMC7105484, “Crystal structures of REF6 and its complex with DNA reveal diverse recognition mechanisms” (Cell Discovery, 2020):

Experiments:
Experiment in all cases: MST; MST: 20 mM HEPES pH 7.3, 150 mM NaCl, 0.2 mM TCEP, 0.5% CA-630, 25 C; EMSA: 30 uM protein, 10 uM dsDNA, 20 mM Tris pH 8.0, 100 mM NaCl, 2.5 mM MgCl2, 0.1% CA-630, 10% glycerol, 1 uM ZnSO4, 1 mM DTT, 4 C
[1] = target: T1, REF6 ZnF1-4 WT (Arabidopsis thaliana, UniProt Q9STM3 1223-1360); details: protein: recombinant; tags: His6-MBP or GST tag, TEV-cleavable (cleaved when necessary); label: FAM in MST; none in crystal and EMSA; 5' overhang 1 nt on both strands, 15 bp
T1 sequence: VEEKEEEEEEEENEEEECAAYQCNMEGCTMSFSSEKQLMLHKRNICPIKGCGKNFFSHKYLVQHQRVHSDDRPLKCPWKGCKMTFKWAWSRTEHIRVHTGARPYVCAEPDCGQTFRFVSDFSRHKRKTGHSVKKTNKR

[2] = target: T2, REF6 W1309A (Arabidopsis thaliana, UniProt Q9STM3 1223-1360, W1309A); details: protein: recombinant; tags: His6-MBP or GST, TEV-cleavable; label: FAM in MST; none in crystal and EMSA; 5' overhang 1 nt on both strands, 15 bp
T2 sequence: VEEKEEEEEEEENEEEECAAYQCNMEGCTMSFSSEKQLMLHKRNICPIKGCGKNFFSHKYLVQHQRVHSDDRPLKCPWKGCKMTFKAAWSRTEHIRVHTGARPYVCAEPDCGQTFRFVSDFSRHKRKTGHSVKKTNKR

[3] = target: T3, REF6 V1340A (Arabidopsis thaliana, UniProt Q9STM3 1223-1360, V1340A); details: protein: recombinant; tags: His6-MBP or GST, TEV-cleavable; label: FAM in MST; none in crystal and EMSA; 5' overhang 1 nt on both strands, 15 bp
T3 sequence: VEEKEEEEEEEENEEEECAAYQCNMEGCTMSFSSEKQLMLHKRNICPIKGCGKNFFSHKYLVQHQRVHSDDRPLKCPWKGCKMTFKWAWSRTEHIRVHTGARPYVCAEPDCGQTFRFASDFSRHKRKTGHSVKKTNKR

B1: NAC004 m5 (dsDNA)
DNA 1: CTTTCTCTGTTTTGTC
DNA 2: GGACAAAACAGAGAAA
- Kd [1]: 400 nM
- Kd [2]: 58.5 µM
- Kd [3]: 500 nM
